Our source for the pKd values is PMC9482650, “Quantitative fragmentomics allow affinity mapping of interactomes” (Nature Communications, 2022).

Holding throughout (assay): holdup assay
Holding throughout (parameters): key: below the threshold = too weak to quantify, mostly under pKd 3.1 to 4

Assay [1] has as its target T1, APBA1_1, Q02410.
T1 sequence (Q02410 651-752, limits assumed, looked up): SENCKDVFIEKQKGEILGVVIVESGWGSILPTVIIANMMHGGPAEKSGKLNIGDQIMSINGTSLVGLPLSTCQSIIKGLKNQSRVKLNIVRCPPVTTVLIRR

Assay [2] deals with T2, APBA2_2, Q99767.
T2 sequence (Q99767 654-744, limits assumed, looked up): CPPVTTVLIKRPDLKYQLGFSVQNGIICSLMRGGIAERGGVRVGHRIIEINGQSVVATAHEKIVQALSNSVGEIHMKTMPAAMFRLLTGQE

The target of assay [3] is T3, ARHGEF11, O15085.
T3 sequence (O15085 42-136, limits assumed, looked up): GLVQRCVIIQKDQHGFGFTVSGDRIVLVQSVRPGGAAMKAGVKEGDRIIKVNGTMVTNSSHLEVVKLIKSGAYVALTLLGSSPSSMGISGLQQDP

In assay [4] the target is DLG2_3, Q15700.
Assay [5] deals with T4, DLG3_2, Q92796.
T4 sequence (Q92796 221-321, limits assumed, looked up): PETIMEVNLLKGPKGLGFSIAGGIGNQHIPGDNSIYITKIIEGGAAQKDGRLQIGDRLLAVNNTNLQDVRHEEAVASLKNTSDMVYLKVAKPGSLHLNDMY

Assay [6] has as its target T5, DLG3_3, Q92796.
T5 sequence (Q92796 374-475, limits assumed, looked up): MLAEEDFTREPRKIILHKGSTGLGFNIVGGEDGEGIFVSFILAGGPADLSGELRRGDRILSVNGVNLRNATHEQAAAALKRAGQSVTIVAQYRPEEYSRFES

In assay [7] the target is DLG5_1, Q8TDM6.
Chain of DLG5_1, Q8TDM6 (Q8TDM6 617-713): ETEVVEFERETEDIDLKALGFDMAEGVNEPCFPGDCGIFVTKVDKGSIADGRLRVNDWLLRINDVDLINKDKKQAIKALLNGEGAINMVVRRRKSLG
Assay [8] has as its target GOPC, Q9HD26.
For assay [9], the target named is GRASP, Q7Z6J2.
Chain of GRASP, Q7Z6J2 (Q7Z6J2 96-193): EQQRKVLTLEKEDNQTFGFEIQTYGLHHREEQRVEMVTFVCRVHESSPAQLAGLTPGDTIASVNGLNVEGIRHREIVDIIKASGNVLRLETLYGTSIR
The target of assay [10] is GRID2IP_2, A4D2P6.
Chain of GRID2IP_2, A4D2P6 (A4D2P6 272-370): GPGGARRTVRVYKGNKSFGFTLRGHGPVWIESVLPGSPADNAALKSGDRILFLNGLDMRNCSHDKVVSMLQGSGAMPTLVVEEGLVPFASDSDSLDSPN
The target in assay [11] is T6, GRIP1_2, Q9Y3R0.
T6 sequence (Q9Y3R0 145-248, limits assumed, looked up): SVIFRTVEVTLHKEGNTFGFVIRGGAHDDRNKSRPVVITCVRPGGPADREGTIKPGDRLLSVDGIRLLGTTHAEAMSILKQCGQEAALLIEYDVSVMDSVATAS

Assay [12] deals with T7, GRIP1_3, Q9Y3R0.
T7 sequence (Q9Y3R0 247-346, limits assumed, looked up): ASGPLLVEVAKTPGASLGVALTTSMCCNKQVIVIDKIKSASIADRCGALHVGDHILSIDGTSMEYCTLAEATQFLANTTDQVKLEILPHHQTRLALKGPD

The target of assay [13] is GRIP2_4, Q9C0E4.
Chain of GRIP2_4, Q9C0E4 (Q9C0E4 446-548): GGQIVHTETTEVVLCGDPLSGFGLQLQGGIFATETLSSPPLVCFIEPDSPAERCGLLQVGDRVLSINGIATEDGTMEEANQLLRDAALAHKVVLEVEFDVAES
In assay [14] the target is T8, HTRA3, P83110.
T8 sequence (P83110 354-453, limits assumed, looked up): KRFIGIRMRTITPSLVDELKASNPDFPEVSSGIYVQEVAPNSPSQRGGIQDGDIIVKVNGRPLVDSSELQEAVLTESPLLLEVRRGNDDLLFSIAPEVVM

Assay [15] has as its target Inadl_1, Q8NI35.
The target of assay [16] is Inadl_2, Q8NI35.
Chain of Inadl_2, Q8NI35 (Q8NI35 238-335): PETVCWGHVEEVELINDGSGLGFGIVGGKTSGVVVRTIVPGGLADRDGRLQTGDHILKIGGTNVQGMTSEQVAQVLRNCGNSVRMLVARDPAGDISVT
Assay [17] concerns the target LAP2, Q96RT1.
Assay [18] has as its target MAGI1_2, Q96QZ7.
Assay [19] has as its target T9, MPDZ_12, O75970.
T9 sequence (O75970 1857-1958, limits assumed, looked up): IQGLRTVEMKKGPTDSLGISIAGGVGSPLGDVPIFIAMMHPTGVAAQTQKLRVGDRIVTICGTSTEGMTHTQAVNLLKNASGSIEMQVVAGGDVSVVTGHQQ

Assay [20] concerns the target T10, MPP6, Q9NZW5.
T10 sequence (Q9NZW5 125-219, limits assumed, looked up): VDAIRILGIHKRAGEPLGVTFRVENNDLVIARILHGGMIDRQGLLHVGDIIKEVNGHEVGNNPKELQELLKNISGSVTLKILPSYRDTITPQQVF

Assay [21] deals with T11, PARD3B_1, Q8TEW8.
T11 sequence (Q8TEW8 196-299, limits assumed, looked up): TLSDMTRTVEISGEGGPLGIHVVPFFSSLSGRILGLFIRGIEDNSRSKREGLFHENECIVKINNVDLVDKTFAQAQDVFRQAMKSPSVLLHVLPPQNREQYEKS

The target of assay [22] is SCRIB_2, Q14160.
Chain of SCRIB_2, Q14160 (Q14160 857-960): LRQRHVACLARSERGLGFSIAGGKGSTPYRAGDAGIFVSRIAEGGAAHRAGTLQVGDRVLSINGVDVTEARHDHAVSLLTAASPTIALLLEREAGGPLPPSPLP
The target in assay [23] is T12, SHANK1, Q9Y566.
T12 sequence (Q9Y566 658-767, limits assumed, looked up): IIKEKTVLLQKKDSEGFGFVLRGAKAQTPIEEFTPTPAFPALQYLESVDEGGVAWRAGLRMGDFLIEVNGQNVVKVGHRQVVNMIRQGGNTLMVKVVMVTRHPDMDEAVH

Assay [24] addresses TJP1_2, Q07157.
[25] abbreviates: modified: phospho on S at position -3 from the C-terminal residue.
Setting [26] is: plain residues with an end cap or a label only (N-terminal biotin on a linker: ado-ado).
Setting [27] is: modified: acetyl on K at position -1 from the C-terminal residue.

Chain of LAP2, Q96RT1 (Q96RT1 other isoform, or with tags, fused parts or gaps): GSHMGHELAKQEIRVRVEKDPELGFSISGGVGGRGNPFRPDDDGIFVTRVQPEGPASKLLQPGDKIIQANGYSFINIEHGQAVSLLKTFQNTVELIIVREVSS
Chain of MAGI1_2, Q96QZ7 (Q96QZ7 456-580): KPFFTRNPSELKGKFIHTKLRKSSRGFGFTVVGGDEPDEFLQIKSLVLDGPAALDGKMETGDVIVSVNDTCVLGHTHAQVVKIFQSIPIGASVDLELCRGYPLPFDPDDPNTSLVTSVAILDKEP
Chain of Inadl_1, Q8NI35 (Q8NI35 113-229): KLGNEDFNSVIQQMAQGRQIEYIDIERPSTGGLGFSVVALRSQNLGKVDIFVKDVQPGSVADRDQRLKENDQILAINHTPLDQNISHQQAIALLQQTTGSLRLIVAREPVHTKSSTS
Chain of TJP1_2, Q07157 (Q07157 181-274): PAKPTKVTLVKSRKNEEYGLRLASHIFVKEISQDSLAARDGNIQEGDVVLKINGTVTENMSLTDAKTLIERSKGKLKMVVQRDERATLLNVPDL

For RRVRKLPSTTL [RPS6KA1_-3P, Q15418], the pKd result in [1] (setting [25]), in assay [2] (setting [25]), in assay [3] (setting [25]), in [4] (setting [25]), in assay [5] (setting [25]) and in [6] (setting [25]) was “below the threshold” throughout. In addition, the pKd entry in assay [7] (setting [25]), in assay [8] (setting [25]), in assay [9] (setting [25]), in assay [10] (setting [25]), in assay [11] (setting [25]) and in assay [12] (setting [25]) was “below the threshold” each time. In addition, the pKd result in assay [13] (setting [25]) was “below the threshold”; in [14] (setting [25]), “below the threshold”; in assay [15] (setting [25]) it was 3.66; in [16] (setting [25]) it was “below the threshold”; in assay [17] (setting [25]), “below the threshold”; in assay [18] (setting [25]), “below the threshold”. For the same molecule, the pKd entry in assay [19] (setting [25]) is “below the threshold”; in assay [20] (setting [25]) it was “below the threshold”; in assay [21] (setting [25]) it was 4.62; in [22] (setting [25]), “below the threshold”; in assay [23] (setting [25]), “below the threshold”; in assay [24] (setting [25]), “below the threshold”.

For PDGEMMEVLI [AMOTL1, Q8IY63], the pKd entry in assay [1] (setting [26]) was “below the threshold”; in [2] (setting [26]), “below the threshold”; in assay [3] (setting [26]), “below the threshold”; in assay [4] (setting [26]) it was 3.58; in [5] (setting [26]), 4.06; in assay [6] (setting [26]), “below the threshold”. The pKd entry in [7] (setting [26]), in assay [8] (setting [26]), in [9] (setting [26]), in assay [10] (setting [26]), in [11] (setting [26]) and in [12] (setting [26]) was “below the threshold” each time. For the same molecule, the negative-log Kd (pKd) result in assay [13] (setting [26]) was “below the threshold”; in [14] (setting [26]), “below the threshold”; in assay [15] (setting [26]) it was “below the threshold”; in assay [16] (setting [26]) it was 4.27; in assay [17] (setting [26]), “below the threshold”; in assay [18] (setting [26]), “below the threshold”. Further, the pKd entry is “below the threshold” in [19] (setting [26]); “below the threshold” in assay [20] (setting [26]); 4.95 in [21] (setting [26]); “below the threshold” in assay [22] (setting [26]); “below the threshold” in [23] (setting [26]); “below the threshold” in [24] (setting [26]).

Regarding DEDQHTQITKV [PTEN_Ac, P60484], the pKd entry is “below the threshold” in [1] (setting [27]); “below the threshold” in assay [2] (setting [27]); 5.16 in [3] (setting [27]); “below the threshold” in assay [4] (setting [27]); 4.56 in [5] (setting [27]); “below the threshold” in assay [6] (setting [27]). For the same molecule, the pKd entry is “below the threshold” in assay [7] (setting [27]); 4.19 in [8] (setting [27]); 5.32 in [9] (setting [27]); 4.39 in assay [10] (setting [27]); “below the threshold” in assay [11] (setting [27]); “below the threshold” in assay [12] (setting [27]). Besides, the pKd result in assay [13] (setting [27]) is “below the threshold”; in assay [14] (setting [27]) it was “below the threshold”; in assay [15] (setting [27]), 3.85; in assay [16] (setting [27]), 3.6; in [17] (setting [27]) it was 3.93; in assay [18] (setting [27]), 3.69. For the same molecule, the negative-log Kd (pKd) entry in assay [19] (setting [27]) was “below the threshold”; in assay [20] (setting [27]), “below the threshold”; in assay [21] (setting [27]), “below the threshold”; in assay [22] (setting [27]), “below the threshold”; in assay [23] (setting [27]) it was 4.18; in [24] (setting [27]), “below the threshold”.

For the molecule FEEEAEEEVA [TUBB4B, P68371], the pKd result was “below the threshold” in assay [1] (setting [26]); “below the threshold” in assay [2] (setting [26]); “below the threshold” in assay [3] (setting [26]); “below the threshold” in assay [4] (setting [26]); 4.01 in assay [5] (setting [26]); “below the threshold” in assay [6] (setting [26]). Further, the pKd result in assay [7] (setting [26]), in [8] (setting [26]), in assay [9] (setting [26]), in [10] (setting [26]), in assay [11] (setting [26]) and in [12] (setting [26]) was “below the threshold” in each case. In addition, the pKd entry in [13] (setting [26]), in assay [14] (setting [26]), in assay [15] (setting [26]), in [16] (setting [26]), in assay [17] (setting [26]) and in assay [18] (setting [26]) was “below the threshold” throughout. Moreover, the pKd result in assay [19] (setting [26]) was “below the threshold”; in assay [20] (setting [26]), “below the threshold”; in assay [21] (setting [26]), 3.98; in assay [22] (setting [26]) it was “below the threshold”; in assay [23] (setting [26]), “below the threshold”; in assay [24] (setting [26]), “below the threshold”.

A word on the pKd: it is the negative decadic logarithm of the Kd, by convention in mol/L.
